Reference: patent US20190134153A1, “IMMUNOMODULATORY EFFECT OF INHALED KINASE INHIBITOR PEPTIDES IN LUNG” (MOERAE MATRIX, INC., priority 2017, published 2019)

Key:
Test in all cases: Kinase Profiling Assay
Type in all cases: biochemical
Details in all cases: 100 μM
Haspin(h) = molecular target: T1, Haspin(h) (Homo sapiens, UniProt Q8TF76)
T1 sequence (Q8TF76 1-798): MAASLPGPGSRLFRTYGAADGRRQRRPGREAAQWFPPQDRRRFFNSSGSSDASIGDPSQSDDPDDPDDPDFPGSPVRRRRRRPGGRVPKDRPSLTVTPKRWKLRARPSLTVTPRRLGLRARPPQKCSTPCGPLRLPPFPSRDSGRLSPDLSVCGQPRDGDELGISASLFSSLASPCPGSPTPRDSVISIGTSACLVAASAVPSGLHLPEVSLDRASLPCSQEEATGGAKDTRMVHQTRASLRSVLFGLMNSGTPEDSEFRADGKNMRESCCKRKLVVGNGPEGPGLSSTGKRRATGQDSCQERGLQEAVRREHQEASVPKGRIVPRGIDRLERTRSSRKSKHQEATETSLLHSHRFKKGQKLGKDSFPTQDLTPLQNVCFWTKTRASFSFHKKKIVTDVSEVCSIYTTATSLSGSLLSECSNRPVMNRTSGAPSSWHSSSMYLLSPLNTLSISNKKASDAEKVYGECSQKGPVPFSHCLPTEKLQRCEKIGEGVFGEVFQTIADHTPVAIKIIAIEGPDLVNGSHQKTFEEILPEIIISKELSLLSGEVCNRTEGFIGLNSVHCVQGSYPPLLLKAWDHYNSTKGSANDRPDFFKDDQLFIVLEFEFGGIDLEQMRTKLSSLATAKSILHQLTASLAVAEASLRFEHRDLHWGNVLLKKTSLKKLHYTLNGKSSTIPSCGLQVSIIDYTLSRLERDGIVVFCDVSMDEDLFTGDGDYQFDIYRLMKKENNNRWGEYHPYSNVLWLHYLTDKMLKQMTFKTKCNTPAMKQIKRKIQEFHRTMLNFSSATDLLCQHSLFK

NEK2(h) = molecular target: T2, NEK2(h) (Homo sapiens, UniProt P51955)
T2 sequence (P51955 1-445): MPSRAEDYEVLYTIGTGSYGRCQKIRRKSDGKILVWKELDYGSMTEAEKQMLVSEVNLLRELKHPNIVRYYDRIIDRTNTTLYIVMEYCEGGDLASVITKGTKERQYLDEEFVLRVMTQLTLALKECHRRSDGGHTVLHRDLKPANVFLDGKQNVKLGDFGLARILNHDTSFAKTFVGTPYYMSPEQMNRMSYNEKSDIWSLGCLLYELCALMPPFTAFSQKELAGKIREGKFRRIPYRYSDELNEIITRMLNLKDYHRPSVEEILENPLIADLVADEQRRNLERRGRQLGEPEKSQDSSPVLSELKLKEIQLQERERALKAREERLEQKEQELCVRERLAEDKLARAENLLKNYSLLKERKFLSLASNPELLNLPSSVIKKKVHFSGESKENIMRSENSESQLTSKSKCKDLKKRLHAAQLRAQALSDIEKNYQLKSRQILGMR

mTOR(h) = mTOR(h) (Homo sapiens, UniProt P42345)
Axl(h) = Axl(h) (Homo sapiens, UniProt P30530)
EphB3(h) = molecular target: T3, EphB3(h) (Homo sapiens, UniProt P54753)
T3 sequence (P54753 34-998): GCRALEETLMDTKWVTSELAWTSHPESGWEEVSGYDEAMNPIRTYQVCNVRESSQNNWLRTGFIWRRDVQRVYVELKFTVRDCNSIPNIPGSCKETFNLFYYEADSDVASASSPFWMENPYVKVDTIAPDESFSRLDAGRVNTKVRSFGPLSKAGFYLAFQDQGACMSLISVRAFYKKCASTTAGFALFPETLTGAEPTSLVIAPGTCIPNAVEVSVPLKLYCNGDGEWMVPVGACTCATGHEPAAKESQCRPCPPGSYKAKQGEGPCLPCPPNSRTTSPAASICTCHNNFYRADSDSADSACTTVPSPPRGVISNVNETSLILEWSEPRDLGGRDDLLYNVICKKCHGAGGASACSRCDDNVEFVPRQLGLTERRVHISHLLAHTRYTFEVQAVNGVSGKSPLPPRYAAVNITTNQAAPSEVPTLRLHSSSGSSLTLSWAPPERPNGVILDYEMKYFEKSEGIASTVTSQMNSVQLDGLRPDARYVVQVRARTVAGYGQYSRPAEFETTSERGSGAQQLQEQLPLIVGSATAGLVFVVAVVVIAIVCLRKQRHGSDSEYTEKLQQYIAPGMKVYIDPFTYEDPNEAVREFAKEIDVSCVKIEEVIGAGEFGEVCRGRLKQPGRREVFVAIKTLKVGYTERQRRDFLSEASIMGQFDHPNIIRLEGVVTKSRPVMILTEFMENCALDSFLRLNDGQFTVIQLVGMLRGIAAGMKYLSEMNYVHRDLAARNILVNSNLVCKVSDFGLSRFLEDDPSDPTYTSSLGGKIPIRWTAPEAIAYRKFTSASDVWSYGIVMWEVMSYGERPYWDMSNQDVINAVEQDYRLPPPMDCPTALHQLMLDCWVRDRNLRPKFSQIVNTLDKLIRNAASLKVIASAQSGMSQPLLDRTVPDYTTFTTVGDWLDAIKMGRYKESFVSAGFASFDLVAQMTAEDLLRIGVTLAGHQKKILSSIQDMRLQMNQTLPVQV

cKit(h) = cKit(h) (Homo sapiens, UniProt P10721)
MSSK1(h) = MSSK1(h) (Homo sapiens, UniProt Q9UPE1)
MSSK1(h), sequence (Q9UPE1 whole entry): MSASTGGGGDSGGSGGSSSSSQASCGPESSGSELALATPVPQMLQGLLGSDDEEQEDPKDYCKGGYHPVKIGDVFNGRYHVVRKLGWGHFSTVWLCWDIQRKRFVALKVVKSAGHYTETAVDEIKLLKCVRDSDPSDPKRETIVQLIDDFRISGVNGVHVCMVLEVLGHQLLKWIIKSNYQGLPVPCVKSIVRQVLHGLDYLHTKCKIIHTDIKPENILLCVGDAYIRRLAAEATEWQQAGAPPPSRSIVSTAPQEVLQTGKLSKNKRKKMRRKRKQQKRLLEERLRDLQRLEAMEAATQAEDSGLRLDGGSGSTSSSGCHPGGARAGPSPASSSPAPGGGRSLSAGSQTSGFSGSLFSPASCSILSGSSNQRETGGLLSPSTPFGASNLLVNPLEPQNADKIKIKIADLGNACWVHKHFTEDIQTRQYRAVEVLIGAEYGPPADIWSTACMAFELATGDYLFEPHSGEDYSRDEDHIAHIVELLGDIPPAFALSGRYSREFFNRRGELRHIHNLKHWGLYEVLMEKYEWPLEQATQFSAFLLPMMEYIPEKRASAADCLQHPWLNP

| Sequence | % activity (Haspin(h)) [%] | % activity (NEK2(h)) [%] | % activity (mTOR(h)) [%] | % activity (Axl(h)) [%] | % activity (EphB3(h)) [%] | % activity (cKit(h)) [%] | % activity (MSSK1(h)) [%] |
| --- | --- | --- | --- | --- | --- | --- | --- |
| YARAAARQARAKALNRQLGVA [MMI-0200] | 71 | 97 | 110 | 99 | 128 | 110 | 100 |
| KAFAKLAARLYRKALARQLGVAA [MMI-0400] | 36 | 61 | 93 | 41 | 47 | 43 | 75 |
| HRRIKAWLKKIKALARQLGVAA [MMI-0500] | 25 | 0 | 135 | 12 | 79 | 45 | 22 |
| FAKLAARLYRKALARQLGVAA [MMI-0300] | 48 | 78 | 91 | 52 | 62 | 53 | 77 |
